Measured values from article PMC2715239.
Values joined by “and” are separate entries in the source; they are usually repeats but may differ in a detail not shown here. Equal entries are not always repeated.

Legend:
Experiment in all cases: SEC-MALS
[1] = molecular target: BcMCM C200 truncation (Bacillus cereus)
[2] = molecular target: BcMCM N399 truncation (Bacillus cereus)
[3] = molecular target: full-length Bacillus cereus MCM (BcMCM) (Bacillus cereus)

BcMCM C200 truncation (domain or fragment)
stoichiometry N [1]: 2 and 3 and 4

BcMCM N399 truncation (domain or fragment)
stoichiometry N [2]: 2 and 4

full-length Bacillus cereus MCM (BcMCM) (enzyme)
stoichiometry N [3]: 2
